The target of this assay is triazole-linked ^triazole42Ub^me-ADPr (5), biotinylated (UniProt P0CG48). The experiment in a line: pull-down.

Bounds are passed on as bounds.

Consider 1 substance from paper PMC7898697.

“mCherry-DupA-WT (from UniProt Q5ZTK7 1-301) (enzyme)” yielded a fold enrichment against biotinylated wild-type Ub or beads of over 10 fold.
